Legend:
[1] = target: T1, human 5T4 expressed on CHO-S cells (CHO-h5T4 cells) (human, UniProt Q13641 32-355); assay: flow cytometry, CHO-h5T4 cells
T1 sequence: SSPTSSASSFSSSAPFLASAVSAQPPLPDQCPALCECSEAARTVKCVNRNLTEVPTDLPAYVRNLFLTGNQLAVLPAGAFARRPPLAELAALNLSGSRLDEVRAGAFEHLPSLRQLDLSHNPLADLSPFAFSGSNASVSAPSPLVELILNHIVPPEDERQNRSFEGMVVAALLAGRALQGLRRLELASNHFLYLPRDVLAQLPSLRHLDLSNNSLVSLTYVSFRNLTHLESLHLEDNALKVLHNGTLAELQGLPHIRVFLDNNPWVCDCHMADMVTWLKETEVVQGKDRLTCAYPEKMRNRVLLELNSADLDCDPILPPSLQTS
Method: (§1) CHO-h5T4 cells, CHO-m5T4 cells, CHO-fas5T4 cells or CHO-d5T4 cells were transferred to a 96-well plate at a density of 2×10⁵ cells/well respectively. The anti-5T4 antibodies were added to the 96-well plate, and incubated at 4° C. for 30 min. Then, the cells were incubated with the secondary antibody anti-hlgG-Fc-Alex Flour 647 (RL1-H) (Jackson ImmunoResearch Laboratories, Inc., Cat #: 109-606-170) at 4° C. in the dark for 15 minutes before flow cytometry analysis.

[2] = target: T2, mouse 5T4 expressed on CHO-S cells (CHO-m5T4 cells) (mouse, UniProt Q9Z0L0 32-361); assay: flow cytometry, CHO-m5T4 cells
T2 sequence: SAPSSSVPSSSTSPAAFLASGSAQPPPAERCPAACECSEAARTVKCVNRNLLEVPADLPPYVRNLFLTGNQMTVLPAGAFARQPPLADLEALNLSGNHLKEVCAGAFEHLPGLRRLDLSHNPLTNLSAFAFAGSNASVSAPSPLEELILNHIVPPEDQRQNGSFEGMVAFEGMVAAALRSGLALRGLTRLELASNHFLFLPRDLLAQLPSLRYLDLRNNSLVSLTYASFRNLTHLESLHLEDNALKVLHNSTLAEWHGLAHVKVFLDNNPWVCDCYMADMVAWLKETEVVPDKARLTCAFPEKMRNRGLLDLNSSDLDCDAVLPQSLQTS
Method: as §1

h5T4-His protein [3] = target: T3, h5T4-His protein (human, UniProt Q13641 32-355, limits assumed); assay: epitope binding assay, h5T4-His captured; binder = analyte 2; competitor (analyte 1): 31G4
T3 construct: also called His-tagged human 5T4 protein; not shown: His tag
T3 sequence (looked up): T1 sequence
Method: (§2) Epitope binding assays were performed using ForteBio Octet system to determine whether two anti-5T4 antibodies target the same or overlapping epitopes. 1×HBS-EP+buffer (10 mM 4-(2-hydroxyethyl)-1-piperazineethanesulfonic acid (HEPES), 150 mM NaCl, 3 mM ethylenediaminetetraacetic acid (EDTA) and 0.05% P20, pH7.4) diluted from HBS-EP+buffer (10×) was used as the running buffer throughout the experiment. About 50 RU of h5T4-His protein was captured at a flow rate of 10 μL/min, and 200 nM of the tested antibody was injected at a flow rate of 30 μL/min to bind the ligand. Another comparison antibody was injected under the same conditions to determine whether the binding of different antibodies interfered with each other. The binding time was 180 s for each antibody.
(§3) The binding value of each antibody was obtained using Data Analysis HT 12.0. To quantify the interference of one antibody binding to another, a binding ratio was calculated to compare each pair of antibodies. The binding ratio is defined as the binding value of the second antibody (analyte 2), divided by the binding value of the first antibody (analyte 1). […] In general, antibody pairs that interfere with each other have the same or overlapping epitopes.

h5T4-His protein [4] = target: T3, h5T4-His protein; assay: epitope binding assay, h5T4-His captured; binder = analyte 2; competitor (analyte 1): 32G1
Method: as §2, §3

h5T4-His protein [5] = target: T3, h5T4-His protein; assay: epitope binding assay, h5T4-His captured; binder = analyte 2; competitor (analyte 1): 32G8
Method: as §2, §3

h5T4-His protein [6] = target: T3, h5T4-His protein; assay: epitope binding assay, h5T4-His captured; binder = analyte 2; competitor (analyte 1): 35C6
Method: as §2, §3

[7] = target: T4, 5T4 on NCI-H226 cells, NCI-H2030 cells and HCC827 cells (UniProt Q13641 32-420, limits assumed); assay: flow cytometry on HCC827 cells, Alexa Fluor 647 anti-human IgG Fc secondary antibody, MFI
T4 construct: whole, on cells
T4 sequence (looked up): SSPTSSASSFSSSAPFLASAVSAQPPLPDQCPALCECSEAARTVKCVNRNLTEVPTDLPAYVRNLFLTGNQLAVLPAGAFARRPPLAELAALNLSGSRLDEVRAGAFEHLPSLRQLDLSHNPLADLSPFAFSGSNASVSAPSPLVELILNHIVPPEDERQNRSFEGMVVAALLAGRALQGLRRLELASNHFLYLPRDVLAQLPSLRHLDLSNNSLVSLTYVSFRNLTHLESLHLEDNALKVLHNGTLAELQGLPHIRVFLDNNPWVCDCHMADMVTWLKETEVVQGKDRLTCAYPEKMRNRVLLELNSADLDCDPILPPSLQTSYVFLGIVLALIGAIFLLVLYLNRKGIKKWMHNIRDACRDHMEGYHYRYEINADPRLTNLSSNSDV
Method: (§4) NCI-H226 cells, NCI-H2030 cells or HCC827 cells were plated in a 96-well plate at a density of 2×10⁵ cells/well. Serially diluted purified anti-5T4 antibody 32G1 or the positive control PF06263507 analog-SI (maximum concentration: 20 μg/mL, 2-fold dilutions, 12 gradients) were added to each well and were incubated at 4° C. for 30 minutes. Then, after one wash with PBS, the cells were incubated with the secondary antibody Alexa Fluor® 647 anti human IgG Fcγ (Jackson ImmunoResearch Laboratories, Inc., Cat #: 109-606-170) at 4° C. for 15 minutes before flow cytometry analysis.
(§5) The cells were collected, and the mean fluorescence intensity (MFI) was determined.

[8] = target: T4, 5T4 on NCI-H226 cells, NCI-H2030 cells …; assay: flow cytometry on NCI-H226 cells, Alexa Fluor 647 anti-human IgG Fc secondary antibody, MFI
Method: as §4, §5

[9] = target: T4, 5T4 on NCI-H226 cells, NCI-H2030 cells …; assay: flow cytometry on NCI-H2030 cells, Alexa Fluor 647 anti-human IgG Fc secondary antibody, MFI
Method: as §4, §5

Percentage of Positive Cells [1]: 56.5%
Percentage of Positive Cells [2]: 27.1%
binding ratio (h5T4-His protein [3]): 0.89
binding ratio (h5T4-His protein [4]): 0.01
binding ratio (h5T4-His protein [5]): 0.82
binding ratio (h5T4-His protein [6]): 1.03
EC50 (read off the curve) [7]: ~0.8 µg/mL
EC50 (read off the curve) [8]: ~0.3 µg/mL
EC50 (read off the curve) [9]: ~0.2 µg/mL
B1: 32G1 (antibody, V domains shown)
VH: QVQLVQSGGGLVKPGGSLRLSCVASGFTFSDYYMNWVRQAPGKGLEWISYVGTESIYTYYADTVKGRFTISRDNAKNSLYLQMNSLRAEDTALYYCARARDYNLYGMDVWGQGTTVTVSS
VL: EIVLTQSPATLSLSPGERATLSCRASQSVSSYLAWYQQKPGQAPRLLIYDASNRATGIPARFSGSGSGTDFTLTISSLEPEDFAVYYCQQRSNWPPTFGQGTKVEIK
notes: also called anti-5T4 antibody 32G1

Source: patent US20260241018A1 (BIOCYTOGEN PHARMACEUTICALS BEIJING, published 2026)
